From patent publication US7879792 (REGENTS OF THE UNIVERSITY OF MICHIGAN, dated 2011) come the findings set out here.

Sequences and labels used below:
B1: rOicPaF(p-Me) (D-Arg-Oic-Pro-D-Ala-Phe(p-Me)) (peptide)
peptide: RXPAF
HELM: PEPTIDE1{[dR].[O=C([C@@H]1C[C@@H]2CCCC[C@@H]2N1[*:1])[*:2]].P.[dA].[Cc1ccc(C[C@H](N[*:1])C(=O)[*:2])cc1].[am]}$$$$V2.0
SMILES: Cc1ccc(C[C@H](NC(=O)[C@@H](C)NC(=O)[C@@H]2CCCN2C(=O)[C@@H]2C[C@@H]3CCCC[C@@H]3N2C(=O)[C@H](N)CCCNC(=N)N)C(N)=O)cc1
notes: also called H-r-Oic-P-a-F(p-Me)-NH2
B2: rOicPsF(p-Me) (D-Arg-Oic-Pro-D-Ser-Phe(p-Me)) (peptide)
peptide: RXPSF
HELM: PEPTIDE1{[dR].[O=C([C@@H]1C[C@@H]2CCCC[C@@H]2N1[*:1])[*:2]].P.[dS].[Cc1ccc(C[C@H](N[*:1])C(=O)[*:2])cc1].[am]}$$$$V2.0; N-terminus assumed
SMILES: Cc1ccc(C[C@H](NC(=O)[C@@H](CO)NC(=O)[C@@H]2CCCN2C(=O)[C@@H]2C[C@@H]3CCCC[C@@H]3N2C(=O)[C@H](N)CCCNC(=N)N)C(N)=O)cc1
B3: rOicPaF(p-I) (D-Arg-Oic-Pro-D-Ala-Phe(p-I)) (peptide)
peptide: RXPAF
HELM: PEPTIDE1{[dR].[O=C([C@@H]1C[C@@H]2CCCC[C@@H]2N1[*:1])[*:2]].P.[dA].[O=C([C@H](Cc1ccc(I)cc1)N[*:1])[*:2]].[am]}$$$$V2.0; N-terminus assumed
SMILES: C[C@@H](NC(=O)[C@@H]1CCCN1C(=O)[C@@H]1C[C@@H]2CCCC[C@@H]2N1C(=O)[C@H](N)CCCNC(=N)N)C(=O)N[C@@H](Cc1ccc(I)cc1)C(N)=O
B4: rOicPaF(p-Br) (D-Arg-Oic-Pro-D-Ala-Phe(p-Br)) (peptide)
peptide: RXPAF
HELM: PEPTIDE1{[dR].[O=C([C@@H]1C[C@@H]2CCCC[C@@H]2N1[*:1])[*:2]].P.[dA].[O=C([C@H](Cc1ccc(Br)cc1)N[*:1])[*:2]].[am]}$$$$V2.0; N-terminus assumed
SMILES: C[C@@H](NC(=O)[C@@H]1CCCN1C(=O)[C@@H]1C[C@@H]2CCCC[C@@H]2N1C(=O)[C@H](N)CCCNC(=N)N)C(=O)N[C@@H](Cc1ccc(Br)cc1)C(N)=O

The target of the first experiment is T1, human α-thrombin (human, UniProt P00734 328-622). In words: cell-based or functional assay.
As to B1, the “peptide concentration giving significant prolongation (p<0.05) of the APTT of normal human plasma” value was 1.56 µM, the “peptide concentration giving significant prolongation (p<0.05) of the PT of normal human plasma” value came to 1.56 µM and the “peptide concentration giving significant prolongation (p<0.05) of the TCT of normal human plasma” value was 0.78 µM.
On to B2, for which the “peptide concentration giving significant prolongation (p<0.05) of the APTT of normal human plasma” value was found to be 3.13 µM, the “peptide concentration giving significant prolongation (p<0.05) of the PT of normal human plasma” value came out at 1.56 µM and the “peptide concentration giving significant prolongation (p<0.05) of the TCT of normal human plasma” value is 0.39 µM.
For B3 the same measures were 25 µM, 6.25 µM and 0.78 µM.
As to B4, the “peptide concentration giving significant prolongation (p<0.05) of the APTT of normal human plasma” value is 12.5 µM, the “peptide concentration giving significant prolongation (p<0.05) of the PT of normal human plasma” value is 6.25 µM and the “peptide concentration giving significant prolongation (p<0.05) of the TCT of normal human plasma” value is 0.78 µM.

Another experiment concerns the target T1, human α-thrombin. In words: inhibition of α-thrombin hydrolysis of Sar-Pro-Arg-paranitroanilide; Ki from Ki,app by the procedure of Bieth.
Consider B1, for which the Ki was 6.6 µM.
The molecule B2 came in with a Ki of 6.7 µM.
On to B3, for which the Ki is 6.4 µM.
B4 returned a Ki of 7.3 µM.
